Laboratory results: the Immune Epitope Database (IEDB)

How the values were obtained:
Assay in all cases: IEDB peptide-MHC binding, purified MHC/competitive/radioactivity; filed as Kd, often an IC50 or EC50 that approximates it; ≥ and ≤ were set here for values at or beyond the usual limits of such assays
[1] = molecular target: HLA-A*02:02
[2] = molecular target: HLA-A*02:03
[3] = molecular target: HLA-A*02:06
[4] = molecular target: HLA-A*33:01
[5] = molecular target: HLA-A*11:01
[6] = molecular target: HLA-A*68:01
[7] = molecular target: HLA-A*03:01
[8] = molecular target: HLA-A*31:01
[9] = source organism: Vaccinia virus WR
[10] = source organism: Dengue virus 2 Jamaica/1409/1983
[11] = source organism: SARS coronavirus Tor2
[12] = source organism: Dengue virus 3 Martinique/1243/1999
[13] = source organism: Mammarenavirus juninense
[14] = source organism: Mammarenavirus lassaense
[15] = source organism: Vaccinia virus Copenhagen
[16] = source organism: Mammarenavirus machupoense
[17] = source organism: Lassa virus Josiah

Sequence	Kd [4, 9] [nM]	Kd [5, 9] [nM]	Kd [6, 9] [nM]	Kd [7, 9] [nM]	Kd [8, 9] [nM]	other results
AITLVVISVI						Kd [1, 9]: 406 nM; Kd [2, 9]: 786 nM; Kd [3, 9]: 2000 nM
ASAWTLYAV						Kd [3, 10]: 8.11 nM
ATLNTLITL						Kd [1, 9]: 373 nM; Kd [2, 9]: 577 nM; Kd [3, 9]: 9.59 nM
AVKFAEESYT						Kd [1, 9]: 1760 nM; Kd [2, 9]: 1470 nM; Kd [3, 9]: 2270 nM
CLDAGINYV						Kd [1, 11]: 0.569 nM; Kd [2, 11]: 6.43 nM; Kd [3, 11]: 1.56 nM
CVMYASALV						Kd [1, 11]: 4.48 nM; Kd [2, 11]: 2.94 nM; Kd [3, 11]: 7.36 nM
DAIKSNNHLT						Kd [1, 9]: ≥ 27400 nM; Kd [2, 9]: 17900 nM; Kd [3, 9]: ≥ 69800 nM
DLFMSHVKSV						Kd [1, 9]: 3380 nM; Kd [2, 9]: 41.7 nM; Kd [3, 9]: 19800 nM
DLLLPSTDV						Kd [1, 9]: 15100 nM; Kd [2, 9]: 3900 nM; Kd [3, 9]: 1060 nM
ELNGKNIEDV						Kd ([3]; source organism: Homo sapiens): ≥ 69800 nM
FVVTTDISEM						Kd [3, 12]: 297 nM
NSINNQLMY	≥ 77700	132	104	4650	≥ 77900	
NSNIIKNKK	4300	1240	241	10200	1250	
NVYADSFVVK						Kd [4, 11]: 972 nM; Kd [5, 11]: 101 nM; Kd [6, 11]: 29.3 nM; Kd [7, 11]: 76.5 nM; Kd [8, 11]: 386 nM
PFEKEFTSDY	≥ 70000	≥ 69800	≥ 70200	≥ 70100	≥ 70000	
PLLCNLNKSH						Kd [4, 13]: ≥ 70000 nM; Kd [5, 13]: ≥ 69700 nM; Kd [6, 13]: ≥ 45800 nM; Kd [7, 13]: ≥ 70000 nM; Kd [8, 13]: ≥ 70000 nM
PSRSKMLKR	≥ 51600	5560	≥ 77700	16.4	1890	
PSVNEYHMLK	11600	13.7	469	10.2	408	
QAELTSNCTR	818	2430	240	2530	801	
QIDRLEDLSK	14700	255	2310	1450	6790	
QLCYCPASKK	≥ 59500	96.2	468	170	12500	

Sequence	Kd [4, 9] [nM]	Kd [5, 9] [nM]	Kd [6, 9] [nM]	Kd [7, 9] [nM]	Kd [8, 9] [nM]	other results
QQQGQTVTK						Kd [4, 11]: ≥ 30400 nM; Kd [5, 11]: 476 nM; Kd [6, 11]: ≥ 50500 nM; Kd [7, 11]: 16600 nM; Kd [8, 11]: 3030 nM
RALIFILLTA						Kd [3, 10]: 140 nM
RIGTAATKR	≥ 77700	2420	325	180	17.2	
RIGTAATKRY	≥ 70000	≥ 69800	≥ 59600	1250	≥ 70000	
RLTDTEYRAR	469	794	822	667	1.33	
RLYECLYRNR						Kd [4, 11]: 2460 nM; Kd [5, 11]: 596 nM; Kd [6, 11]: 229 nM; Kd [7, 11]: 6.91 nM; Kd [8, 11]: 2.08 nM
SARNKLFKR	69.6	5710	441	≥ 58700	1.25	
SGSCLNNEK						Kd [4, 14]: ≥ 59800 nM; Kd [5, 14]: 556 nM; Kd [6, 14]: 876 nM; Kd [7, 14]: ≥ 20300 nM; Kd [8, 14]: ≥ 60900 nM
SIGNVTRLFY	17400	25	2050	2.94	3050	
SIILANERY	≥ 77700	233	607	≥ 78000	19900	
SLAIKNYYRK						Kd [4, 15]: 1180 nM; Kd [5, 15]: 10.6 nM; Kd [6, 15]: 1770 nM; Kd [7, 15]: 35.3 nM; Kd [8, 15]: 297 nM
SMGFKVTTR	166	4730	1270	5010	1.94	
SMTYLYNKY	8750	1660	1750	9930	≥ 25000	
SSFDYCGVNH						Kd [4, 16]: 6430 nM; Kd [5, 16]: 4840 nM; Kd [6, 16]: 492 nM; Kd [7, 16]: 8190 nM; Kd [8, 16]: 1970 nM
STELIRRVR	1320	127	57.1	13.9	91.8	
SWPVQCPLDH						Kd [4, 13]: 19400 nM; Kd [5, 13]: ≥ 69700 nM; Kd [6, 13]: ≥ 70100 nM; Kd [7, 13]: ≥ 70000 nM; Kd [8, 13]: 9.74 nM
TCNDHYLCLR						Kd [4, 16]: 718 nM; Kd [5, 16]: ≥ 61800 nM; Kd [6, 16]: 2210 nM; Kd [7, 16]: ≥ 33300 nM; Kd [8, 16]: 123 nM
TCQGSDDIR						Kd [4, 17]: 12100 nM; Kd [5, 17]: ≥ 77900 nM; Kd [6, 17]: 14500 nM; Kd [7, 17]: ≥ 78000 nM; Kd [8, 17]: ≥ 22300 nM
TFVNFNSVK	197	21.4	12.5	784	103	
TIDKSSPLY	≥ 77700	81.7	206	65.2	≥ 53700	
TIQRFSSLRR	9.81	1.88	7.24	78.6	1.56	

Sequence	Kd [4, 9] [nM]	Kd [5, 9] [nM]	Kd [6, 9] [nM]	Kd [7, 9] [nM]	Kd [8, 9] [nM]	other results
TLATGPITTL						Kd [2, 12]: 12 nM
TLYAVATTIL						Kd ([2]; source organism: Dengue virus 4 Philippines/H241/1956): 101 nM
TMHANYIFWR						Kd [4, 11]: 121 nM; Kd [5, 11]: 125 nM; Kd [6, 11]: 35.5 nM; Kd [7, 11]: 1260 nM; Kd [8, 11]: 11.3 nM
TQMRTPLHK	≥ 77700	78	8960	1180	3520	
TQNVLYENQK						Kd [4, 11]: ≥ 70000 nM; Kd [5, 11]: 523 nM; Kd [6, 11]: 3090 nM; Kd [7, 11]: ≥ 29200 nM; Kd [8, 11]: 13300 nM
TSASEIKDR	1340	1680	9.93	≥ 78000	18900	
TVYVYSRVK						Kd [4, 11]: 1070 nM; Kd [5, 11]: 145 nM; Kd [6, 11]: 919 nM; Kd [7, 11]: 67.5 nM; Kd [8, 11]: 769 nM
VFIHMVRCCK	212	4820	≥ 24500	≥ 20900	43.9	
VLAYMLFTK						Kd [4, 11]: 1890 nM; Kd [5, 11]: 0.894 nM; Kd [6, 11]: 7.96 nM; Kd [7, 11]: 0.179 nM; Kd [8, 11]: 223 nM
VLSAATETY	≥ 77700	6460	1470	3010	≥ 69700	
VSKHWELTNK	11900	157	1520	680	1780	
VVMAYVGIK	≥ 23200	1.24	19	18.6	2460	
VVMHINSPFK	11600	2.56	37.4	8.41	123	
WALRHPGFTV						Kd ([3]; source organism: Dengue virus 1 Brazil/97-11/1997): 83.7 nM
WIMLLQFAY						Kd [4, 11]: ≥ 77700 nM; Kd [5, 11]: 14100 nM; Kd [6, 11]: ≥ 23000 nM; Kd [7, 11]: 4090 nM; Kd [8, 11]: 5330 nM
YFVCWHTHNY						Kd [4, 11]: 1820 nM; Kd [5, 11]: 8120 nM; Kd [6, 11]: 4860 nM; Kd [7, 11]: 1520 nM; Kd [8, 11]: 2330 nM
YILQLIRHGR	256	≥ 27400	10.3	11200	40.2	
YSFKLILAEY	7960	7290	3670	8180	658	
YSKKFQESFY	≥ 70000	7410	1780	2720	14400	
YVGIKLGDK	≥ 50600	650	2090	987	≥ 24900	
YVKALTKNY	≥ 77700	12700	1800	1590	≥ 77900	
